Assay results reported in article PMC8842248 (2022).
*: point of attachment. Farnesyl = CC(C)=CCC/C(C)=C/CC/C(C)=C/C*

Assays:
[1] = biological target: T1, PDE6D (phosphodiesterase 6 delta), wild type, polyhistidine tag removed (UniProt O43924 1-150); assay: FP; in the presence of 500 uM Compound-2
[2] = biological target: T1, PDE6D (phosphodiesterase 6 delta), wild …; assay: FP; + compound-1, replicate 1
[3] = biological target: T1, PDE6D (phosphodiesterase 6 delta), wild …; assay: FP; + compound-1, replicate 3
[4] = biological target: T1, PDE6D (phosphodiesterase 6 delta), wild …; assay: FP; + compound-1, replicate 2
[5] = biological target: T1, PDE6D (phosphodiesterase 6 delta), wild …; assay: FP; + compound-1, average of 3 replicates
[6] = biological target: T1, PDE6D (phosphodiesterase 6 delta), wild …; assay: FP; replicate 3
[7] = biological target: T1, PDE6D (phosphodiesterase 6 delta), wild …; assay: FP; average of 3 replicates

B1: fluorescein-labeled KRAS HVR peptide, FAM-KKKKKKSKTKC(OMe)-Far (peptide)
peptide: {FAM}-KKKKKKSKTKC(Farnesyl)-OMe
[1]
  Kd: 55.2 µM
[2]
  Kd: 1 µM
[3]
  Kd: 1.2 µM
[4]
  Kd: 1.7 µM
[5]
  Kd: 1.3 µM
[6]
  Kd: 1.1 µM
[7]
  Kd: 1.4 µM
